# Reference: patent publication US8715676B2, “Production and uses of type I ribosome inactivating proteins” (priority 2008, dated 2014)
# Like-named read-outs stand apart in the source and are kept apart here.
# B1: Recombinant Cucurmosin: 297 amino acid pro-cucurmosin (SEQ ID 4), type 1 ribosome inactivating protein expressed in E. coli with C-terminal histidine tag (protein, listed as Cucurbita moschata)
# chain: MNVRFDLSSATSSSYKTFIKNLREALPKDGKVYDIPVLLSTVMDSRRFILIDLVNYDGQSITAAIDVLNVYIVAYSTGTVSYFFQQVPAQAPKLLFKGTQQRTLPYTGNYENLQTAAKKLRENIELGLPALDSAITTLFHYNAEAAASALLVLIQTTSEAARFRYIELQIANNVGTKFKPSQTIISLENNWSALSKQIQIAKNKNGQFETPVILIDPQGNRVQITNVTSNVVTQNIKLLLNIGATVDTMAANDDVDEMTSGVPIRLSSCGHEMERKSVENGRHANYVSVLEHHHHHH
# modifications: C-terminal His tag
# Experiments:
# [1] = test system: LO2 non-cancer cells; assay: Cytotoxicity in non-cancer cells in vitro (TOX8 viability, 72 h); format: cell-based
# Method: (§1) Human breast cancer cells, MDA 231 and BT 474, were grown in tissue culture to assay for the concentration at which 50% of the cells are inhibited from growing (IC50). The cells were seeded in 96-well plates at 5000 cells per well and grown overnight in RPMI 1640 supplemented with 10% fetal bovine serum and 15 μg/ml insulin. The culture medium was replaced. The recombinant cucurmosin, natural cucurmosin and vinblastine were added to the cells at various concentrations. Likewise, the non-cancer cells, LO2 and lymphocytes were treated with these drugs at different concentrations. The cells were grown for an additional 72 hours and then 20 μl of TOX8 was added to each well. The cells were incubated another 8 hours at 37° C., 5% CO2 to allow time for the cells to metabolize the TOX8 indicator. Absorbance readings at 600 nm were taken of each well. Viability was indicated by a drop in absorbance at 600 nm readings.
# [2] = test system: lymphocytes (non-cancer cells); assay: as above; format: cell-based
# Method: as §1
# [3] = test system: MDA 231 human breast cancer cells; assay: Cytotoxicity in cancer cells in vitro (TOX8 viability, 72 h); format: cell-based
# Method: as §1
# [4] = test system: BT 474 human breast cancer cells; assay: as above; format: cell-based; details: TB474 (BT 474) cells
# Method: as §1
# [5] = test system: A549 tumors; assay: Treating A549 tumors in mice, intratumoral injection; format: in vivo, NOD/SCID mice; details: for Tumor growth: Day 1 to Day 11
# Method: (§2) Human lung cancer cells, […] or A549, were used to induce tumor formation in backs of NOD/SCID mice (JAX, #001303). The cells were maintained in culture. In each experiment, 5 million cells were injected into the back of the mice. Tumors formed in 2 to 3 weeks. Tumor sizes were measured using a digital caliper and then areas calculated.
# In another group of mice, carrying tumors derived from A549 cells, 5 or 50 μg treatments of directly injected recombinant cucurmosin into the tumors was able to reduce tumors by 15 and 33%, respectively while the negative control saw the tumor grow 150% (TABLE 3).
# [6] = test system: HMEL tumors; assay: Treating HMEL tumors in mice by tail vein injection; format: in vivo, NOD/SCID mice
# Method: as §2
# (§3) In one experiment, either 5 or 50 μg recombinant cucurmosin was injected into the HMEL tumors in 100 μl of saline solution on the days that the tumors were measured. Mouse 2 had tumors in both sides of its back which were each treated separately. Over the 18 day period, the mouse injected with no cucurmosin saw its tumor increase 267% (TABLE 2). […] Mouse 1 and 3 with HMEL tumors after 18 days intratumoral treatment (Table 2), were continually administered recombinant cucurmosin by tail vein injection using 50 μg of recombinant cucurmosin in 100 μl saline solution at day 0 (the same day as day 18 of intratumoral treatment) and day 5. […] The results of these tests are depicted in FIG. 1.
# [7] = test system: HMEL tumors; assay: Treating HMEL tumors in mice, intratumoral injection; format: in vivo, NOD/SCID mice; details: for Tumor growth: over 18 days
# Method: as §2, §3
molecule,measurement,setting,value
"CC[C@]1(O)C[C@@H]2CN(CCc3c([nH]c4ccccc34)[C@@](C(=O)OC)(c3cc4c(cc3OC)N(C)[C@H]3[C@@](O)(C(=O)OC)[C@H](OC(C)=O)[C@]5(CC)C=CCN6CC[C@]43[C@@H]65)C2)C1 [Vinblastine, reference compound]",IC50,[1],68 nM
same,IC50,[2]; Lymphocyte,73 nM
same,IC50,"[3]; Homo sapiens, MDA-MB-231, MDA231 cells",25 nM
same,IC50,[4]; Homo sapiens,26 nM
B1,IC50,[1],1200 nM
same,IC50,[2],2500 nM
same,IC50,[3]; MDA231 cells,23 nM
same,IC50,"[3]; MDA231 cells, listed as recombinant cucurmosin",> 20 nM
same,IC50,[4],22 nM
same,IC50,[4]; listed as recombinant cucurmosin,> 20 nM
same,Tumor reduction,[5]; 5 μg directly injected into the tumors,15%
same,Tumor reduction,[5]; 50 μg directly injected into the tumors,33%
same,Tumor Size,"[5]; Mouse 2, 5 μg intratumoral, Day 1",34.7 mm^2
same,Tumor growth,"[5]; Mouse 2, 5 μg intratumoral",−15%
same,Tumor Size,"[5]; Mouse 2, 5 μg intratumoral, Day 3",38.8 mm^2
same,Tumor Size,"[5]; Mouse 2, 5 μg intratumoral, Day 5",42.4 mm^2
same,Tumor Size,"[5]; Mouse 2, 5 μg intratumoral, Day 7",40.8 mm^2
same,Tumor Size,"[5]; Mouse 2, 5 μg intratumoral, Day 9",39.5 mm^2
same,Tumor Size,"[5]; Mouse 2, 5 μg intratumoral, Day 11",29.5 mm^2
same,Tumor Size,"[5]; Mouse 3, 50 μg intratumoral, Day 1",100.6 mm^2
same,Tumor growth,"[5]; Mouse 3, 50 μg intratumoral",−33%
same,Tumor Size,"[5]; Mouse 3, 50 μg intratumoral, Day 3",104.1 mm^2
same,Tumor Size,"[5]; Mouse 3, 50 μg intratumoral, Day 5",108.6 mm^2
same,Tumor Size,"[5]; Mouse 3, 50 μg intratumoral, Day 7",113.1 mm^2
same,Tumor Size,"[5]; Mouse 3, 50 μg intratumoral, Day 9",78.8 mm^2
same,Tumor Size,"[5]; Mouse 3, 50 μg intratumoral, Day 11",67.3 mm^2
same,Toxic effects on the mice,[6]; 50 μg tail vein injection,no obvious toxic effects
same,Tumor size increase,"[6]; Mouse 3, 50 μg tail vein at day 0 and day 5, seven days after initial injection",7%
same,Side-effects in mice,"[7]; 5 or 50 μg intratumoral, 18 days",did not suffer any noticeable side-effects
same,Tumor Size,"[7]; Mouse 2 left, 5 μg intratumoral, Day 1",39.4 mm^2
same,Tumor Size,"[7]; Mouse 2 left, 5 μg intratumoral, Day 3",33 mm^2
same,Tumor Size,"[7]; Mouse 2 left, 5 μg intratumoral, Day 5",23 mm^2
same,Tumor Size,"[7]; Mouse 2 left, 5 μg intratumoral, Day 8",19.7 mm^2
same,Tumor Size,"[7]; Mouse 2 left, 5 μg intratumoral, Day 15",12.5 mm^2
same,Tumor Size,"[7]; Mouse 2 left, 5 μg intratumoral, Day 18",0 mm^2
same,Tumor growth,"[7]; Mouse 2 left, 5 μg intratumoral",−100%
same,Tumor Size,"[7]; Mouse 2 right, 5 μg intratumoral, Day 1",27.8 mm^2
same,Tumor Size,"[7]; Mouse 2 right, 5 μg intratumoral, Day 3",24.8 mm^2
same,Tumor Size,"[7]; Mouse 2 right, 5 μg intratumoral, Day 5",18.5 mm^2
same,Tumor Size,"[7]; Mouse 2 right, 5 μg intratumoral, Day 8",12.2 mm^2
same,Tumor Size,"[7]; Mouse 2 right, 5 μg intratumoral, Day 15",0 mm^2
same,Tumor Size,"[7]; Mouse 2 right, 5 μg intratumoral, Day 18",0 mm^2
same,Tumor growth,"[7]; Mouse 2 right, 5 μg intratumoral",−100%
same,Effect on tumor growth compared to the negative control,"[7]; Mouse 3 (largest tumor), 5 μg intratumoral",slow the tumor growth compared to the negative control
same,Tumor Size,"[7]; Mouse 3, 5 μg intratumoral, Day 1",162.2 mm^2
same,Tumor Size,"[7]; Mouse 3, 5 μg intratumoral, Day 3",158 mm^2
same,Tumor Size,"[7]; Mouse 3, 5 μg intratumoral, Day 5",151.8 mm^2
same,Tumor Size,"[7]; Mouse 3, 5 μg intratumoral, Day 8",186.7 mm^2
same,Tumor Size,"[7]; Mouse 3, 5 μg intratumoral, Day 15",206.7 mm^2
same,Tumor Size,"[7]; Mouse 3, 5 μg intratumoral, Day 18",231.2 mm^2
same,Tumor growth,"[7]; Mouse 3, 5 μg intratumoral",43%
same,Tumor Size,"[7]; Mouse 4, 50 μg intratumoral, Day 1",23.9 mm^2
same,Tumor Size,"[7]; Mouse 4, 50 μg intratumoral, Day 3",12.2 mm^2
same,Tumor Size,"[7]; Mouse 4, 50 μg intratumoral, Day 5",9.4 mm^2
same,Tumor Size,"[7]; Mouse 4, 50 μg intratumoral, Day 8",0 mm^2
same,Tumor Size,"[7]; Mouse 4, 50 μg intratumoral, Day 15",0 mm^2
same,Tumor Size,"[7]; Mouse 4, 50 μg intratumoral, Day 18",0 mm^2
same,Tumor growth,"[7]; Mouse 4, 50 μg intratumoral",−100%
same,Effect on tumors smaller than 40 mm^2,"[7]; either 5 or 50 μg intratumoral, 18 day period",completely abrogated
